One may read the Kd as the constant that tells how readily two partners part at equilibrium. For orientation: koff means a measure of how fast the partners let go of each other. In general, kon refers to the second-order rate constant of association. In general, EC50 refers to the midpoint of the concentration-response curve.

We go through 24 molecules from patent EP4703388A1 (Jiangsu Hengrui Pharmaceuticals Co., Ltd., dated 2024).

Numbering of substitutions follows the chain as printed.

The labels stand for the following.
T1: cyno TF ECD-His (cTF-his) (monkey (cyno))
T1 construct: also called bio-cTF-his; monkey TF-His protein
T1 chain: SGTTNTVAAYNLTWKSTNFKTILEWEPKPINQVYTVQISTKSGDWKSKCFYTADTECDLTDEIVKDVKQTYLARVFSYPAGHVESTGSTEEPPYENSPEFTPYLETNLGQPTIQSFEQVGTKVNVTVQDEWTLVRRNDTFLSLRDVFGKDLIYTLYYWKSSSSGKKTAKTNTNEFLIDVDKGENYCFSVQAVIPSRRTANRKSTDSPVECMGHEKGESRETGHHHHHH

B1: hu67-1 (antibody, human IgG1, kappa, V domains shown)
VH: EVTLKQSGPVLVKPTQTLTLTCTVSGFSLTNYGVNWIRQPPRKALEWLAVIWSRGNTDYNAAFISRLTISKDTSKSQVVLKMTNMDPVDTATYYCARKDAVVATDALDYWGQGTTVTVSS
VL: DIVMTQSPKSLAVSLGERATINCKASQDVSTAVAWYQQKPGQPPKLLIYSTSYRYTGVPDRFSGSGSGTDFTLTISSLQAEDVAVYYCQQHYSTPYTFGGGTKVEIKR
B2: hu67-5 (antibody, human IgG1, kappa, V domains shown)
VH: B1 VH
VL: B1 VL with P43S, L73F
B3: hu67-6 (antibody, human IgG1, kappa, V domains shown)
VH: B1 VH with A44G, A49G, T73N
VL: B1 VL with P43S, L73F
B4: hu67-2 (antibody, human IgG1, kappa, V domains shown)
VH: B1 VH with A44G, A49G, T73N
VL: B1 VL
B5: hu67-12 (antibody, human IgG1, kappa, V domains shown)
VH: EVQLQESGPGLVKPSQTLSLTCTVSGFSLTNYGVNWIRQPPRKGLEWIGVIWSRGNTDYNAAFISRVTISKDNSKSQVSLKLSSVTAADTAVYYCARKDAVVATDALDYWGQGTTVTVSS
VL: DIQMTQSPSSLSASVGDRVTITCKASQDVSTAVAWYQQKPGKAPKLLIYSTSYRYTGVPSRFSGSGSGTDFTFTISSLQPEDIATYYCQQHYSTPYTFGGGTKVEIKR
B6: hu67-3 (antibody, human IgG1, kappa, V domains shown)
VH: B5 VH with R42G, N73T, S76N
VL: B1 VL
B7: hu67-9 (antibody, human IgG1, kappa, V domains shown)
VH: B1 VH
VL: B5 VL
B8: hu67-15 (antibody, human IgG1, kappa, V domains shown)
VH: B5 VH with R42G, N73T, S76N
VL: B5 VL with P8H, S9K, S10F, A43S
B9: hu67-13 (antibody, human IgG1, kappa, V domains shown)
VH: B1 VH
VL: B5 VL with P8H, S9K, S10F, A43S
B10: hu67-10 (antibody, human IgG1, kappa, V domains shown)
VH: B1 VH with A44G, A49G, T73N
VL: B5 VL
B11: hu67-7 (antibody, human IgG1, kappa, V domains shown)
VH: B5 VH with R42G, N73T, S76N
VL: B1 VL with P43S, L73F
B12: hu67-8 (antibody, human IgG1, kappa, V domains shown)
VH: B5 VH
VL: B1 VL with P43S, L73F
B13: hu67-16 (antibody, human IgG1, kappa, V domains shown)
VH: B5 VH
VL: B5 VL with P8H, S9K, S10F, A43S
B14: hu10H10-1 (antibody, V domains shown)
VH: EVQLVQSGAEVKKPGASVKVSCKASGYTFITYWIEWVRQRPGQGLEWMGDILPGSGSTNYNENFKGRVTFTADTSTSTVYMQLSSLRSEDTAVYYCARSGYYGNSGFAYWGQGTLVTVSS
VL: DIQMTQSPSSLSASVGDRVTITCKSSQSLLSSGNQKNYLTWYQQKPGKAPKLLIYWASTRESGVPSRFSGSGSGTDFTLTISSLQPEDFATYYCQNDYTYPLTFGQGTKLEIK
notes: H1+L1; Full-length IgG
B15: hu10H10-19 (antibody, V domains shown)
VH: B14 VH
VL: B14 VL with T103S
notes: H1+L4; Full-length IgG
B16: hu310-10 (antibody, human IgG1, kappa, V domains shown)
VH: EVQLVQSGAEVKKPGASVKVSCKASGYSFTGYYMNWVRQAPGQGLEWMGEINPSTGGSTYNQKFKARVTLTVDQSTNTAYMELSSLRSEDTAVYYCARRELGGPFGYWGQGTTVTVSS
VL: SIVMTQSPDSLAVSLGERATINCKASQSVSNGIAWYQQKPGQSPKLLIYFASNRYTGVPDRFSGSGYGTDFTLTISSLQAEDVAVYYCQQDYSSPWTFGGGTKVEIKR
B17: hu310-5 (antibody, human IgG1, kappa, V domains shown)
VH: B16 VH with L70M, N77S, A79V
VL: SIQMTQSPSSLSASVGDRVTITCKASQSVSNGIAWYQQKPGKSPKLLIYFASNRYTGVPSRFSGSGYGTDFTFTISSLQPEDIATYYCQQDYSSPWTFGGGTKVEIKR
B18: hu310-8 (antibody, human IgG1, kappa, V domains shown)
VH: B16 VH with L70M, N77S, A79V
VL: B17 VL with N31T
B19: hu310-7 (antibody, human IgG1, kappa, V domains shown)
VH: B16 VH with L70M, N77S, A79V
VL: B17 VL with N31S
B20: hu310-6 (antibody, human IgG1, kappa, V domains shown)
VH: B16 VH with L70M, N77S, A79V
VL: B17 VL with N31Q
B21: hu310-4 (antibody, human IgG1, kappa, V domains shown)
VH: B16 VH with L70M, N77S, A79V
VL: B17 VL with S1D, S43A, Y67S
B22: hu310-3 (antibody, human IgG1, kappa, V domains shown)
VH: B16 VH with L70M, N77S, A79V
VL: B16 VL with D9K, S10F, L73F
B23: hu310-11 (antibody, human IgG1, kappa, V domains shown)
VH: B16 VH
VL: B16 VL with D9K, S10F, L73F
B24: hu310-9 (antibody, human IgG1, kappa, V domains shown)
VH: B16 VH
VL: B16 VL with S1D, S43P, Y67S

For the first assay, the target named is T1, cyno TF ECD-His (cTF-his). The assay can be described thus: SPR Biacore T200, antibody on Protein A chip, TF-His as analyte, 1:1 model. In general terms: In SPR one partner is held on a chip, and binding of the other changes the refractive index at the surface.
For B1, the Kd turned out to be 14.8 nM, the koff was determined as 0.000358 s⁻¹ and the kon worked out at 24100 M⁻¹ s⁻¹.

With B2, the Kd was 15.1 nM, the koff worked out at 0.00039 s⁻¹ and the kon came out at 25800 M⁻¹ s⁻¹.

The molecule B3 showed a Kd of 14.3 nM, a koff of 0.000428 s⁻¹ and a kon of 29900 M⁻¹ s⁻¹.

B4 registered a Kd of 12.7 nM, a koff of 0.000429 s⁻¹ and a kon of 33700 M⁻¹ s⁻¹.

On to B5, for which the Kd turned out to be 14 nM, the koff worked out at 0.000468 s⁻¹ and the kon was determined as 33400 M⁻¹ s⁻¹.

Turning to B6, the Kd is 13.5 nM, the koff was determined as 0.000431 s⁻¹ and the on-rate (kon) was 31900 M⁻¹ s⁻¹.

Turning to B7, the Kd was 10.8 nM, the koff came out at 0.000351 s⁻¹ and the kon turned out to be 32400 M⁻¹ s⁻¹.

B8 came in with a Kd of 13.4 nM, a koff of 0.000419 s⁻¹ and a kon of 31200 M⁻¹ s⁻¹.

Molecule B9 had a Kd of 10.9 nM, a koff of 0.000344 s⁻¹ and a kon of 31500 M⁻¹ s⁻¹.

Turning to B10, the Kd was determined as 8.9 nM, the koff stood at 0.000356 s⁻¹ and the kon was found to be 40000 M⁻¹ s⁻¹.

Regarding B11, the Kd turned out to be 10.5 nM, the koff was 0.00036 s⁻¹ and the kon came to 34200 M⁻¹ s⁻¹.

For B12, the affinity, expressed as Kd, was 13.7 nM; the koff came to 0.000446 s⁻¹; the kon amounted to 32500 M⁻¹ s⁻¹.

Consider B13, for which the Kd was found to be 14.8 nM, the koff came out at 0.000478 s⁻¹ and the kon was 32200 M⁻¹ s⁻¹.

A further assay addresses T2, human TF ECD-His (hTF-his) (human, UniProt P13726 33-251).
T2 construct: also called bio-hTF-his; human TF-His protein
The assay is described as above.
B1 gave a Kd of 13.6 nM, an off-rate constant (koff) of 0.000585 s⁻¹ and a kon of 42900 M⁻¹ s⁻¹.

Molecule B2 showed a dissociation constant Kd of 17.7 nM, a koff of 0.000582 s⁻¹ and an on-rate constant (kon) of 32800 M⁻¹ s⁻¹.

Consider B3, for which binding was characterised by a dissociation constant (Kd) of 21.7 nM, the koff came out at 0.000652 s⁻¹ and the kon is 30000 M⁻¹ s⁻¹.

B4 had a Kd of 15.8 nM, a koff of 0.000673 s⁻¹ and a kon of 42600 M⁻¹ s⁻¹.

For B5, the affinity, expressed as Kd, was 18.7 nM; the koff came to 0.000731 s⁻¹; the kon stood at 39200 M⁻¹ s⁻¹.

B6 displayed a Kd of 14.2 nM, a koff of 0.000663 s⁻¹ and an on-rate (kon) of 46600 M⁻¹ s⁻¹.

B7 yielded a Kd of 16.4 nM, a koff of 0.000564 s⁻¹ and a kon of 34500 M⁻¹ s⁻¹.

Take B8: the affinity, expressed as Kd, was 19.1 nM; the koff is 0.000638 s⁻¹; the kon came to 33400 M⁻¹ s⁻¹.

In turn, B9 returned an equilibrium dissociation constant (Kd) of 19 nM, a koff of 0.000577 s⁻¹ and a kon of 30400 M⁻¹ s⁻¹.

As for B10, the Kd was 15.2 nM, the koff turned out to be 0.000594 s⁻¹ and the kon was determined as 39200 M⁻¹ s⁻¹.

Consider B11, for which binding was put at a Kd of 14.3 nM, the koff was determined as 0.000584 s⁻¹ and the on-rate constant (kon) is 40800 M⁻¹ s⁻¹.

Take B12: the Kd amounted to 17.1 nM, the koff came to 0.000668 s⁻¹ and the kon came out at 39000 M⁻¹ s⁻¹.

B13 returned a Kd of 19.2 nM, a koff of 0.000702 s⁻¹ and an on-rate (kon) of 36500 M⁻¹ s⁻¹.

The target in the next assay is T3, human tissue factor (TF) on MDA-MB-231, NCI-H358 and HCT116 cells (human, UniProt P13726 33-295).
T3 construct: whole, on cells; also called TF antigen; CD142
The assay can be described thus: flow cytometry on MDA-MB-231 cells. A general note: Flow cytometry measures light scatter and fluorescence of single cells or particles in a stream.
On to B14, for which the EC50 was 2.05 nM.

In turn, B15 yielded an EC50 of 2.35 nM.

B16 had an EC50 of 1.33 nM.

Turning to B17, the EC50 was 1.55 nM.

Regarding B18, the concentration for a half-maximal effect (EC50) stood at 1.73 nM.

B19 returned an EC50 of 2.08 nM.

In the case of B20, the midpoint of the response, the EC50, lay at 2.56 nM.

Molecule B21 came in with an EC50 of 2.11 nM.

For the molecule B22, the EC50 came to 1.83 nM.

In turn, B23 registered an EC50 of 1.76 nM.

Take B24: it took 1.97 nM to reach a half-maximal effect (EC50).
